According to PMC7190724, “Improved GPCR ligands from nanobody tethering” (Nature Communications, 2020):

Target: PTHR1_(YFPΔECD)

cAMP response (cAMP-activated luciferase luminescence) at the highest concentration tested, 100 nM, against the maximal response observed; precise EC50 could not be obtained (% of the maximal response): 40
Substance: VHHGFP-PTH(1-9)
